The supplement of paper PMC10065799, “High-throughput profiling of sequence recognition by tyrosine kinases and SH2 domains using bacterial peptide display” (eLife, 2023)
One block for each sequence: values may come before it.

Key:
[1] = test system: AncSZ; assay: phosphorylation enrichment, bacterial display (enrichment ratio); higher = better substrate or ligand; peptides without Tyr show the background
[2] = biological target: EPHB1 (UniProt P54762); assay: as above
[3] = biological target: EPHB2 (UniProt P29323); assay: as above
[4] = biological target: FGFR1 (UniProt P11362); assay: as above
[5] = biological target: FGFR3 (UniProt P22607); assay: as above
[6] = test system: Fer (mouse); assay: as above
[7] = biological target: Fes (UniProt P07332); assay: as above
[8] = biological target: Fyn (UniProt P06241); assay: as above
[9] = biological target: Hck (UniProt P08631); assay: as above
[10] = biological target: Jak2 (UniProt O60674); assay: as above
[11] = biological target: MERTK (UniProt Q12866); assay: as above
[12] = test system: c-Abl (mouse); assay: as above
[13] = test system: c-Src; assay: as above
[14] = biological target: Grb2 SH2 (UniProt P62993); assay: SH2 binding enrichment of the phosphorylated peptide, bacterial display (enrichment ratio); higher = better substrate or ligand; peptides without Tyr show the background
[15] = biological target: SHP2-C SH2; assay: as above
[16] = biological target: c-Src SH2; assay: as above
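Throughout, for SH2 binding enrichment of the phosphorylated peptide, bacterial display: peptide library displayed on the E. coli surface as eCPX fusions, selected cells deep-sequenced, score is each peptide's frequency after selection divided by its frequency in the input.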
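Throughout, for phosphorylation enrichment, bacterial display: 11-residue human phosphosite peptides and single-mutation variants displayed on the E. coli surface, counted by deep sequencing, each peptide's frequency after selection divided by its frequency in the unselected input library; frequency after pTyr selection over input frequency; kinase dosed for 20-30% of maximal phosphorylation in three min.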

Chain of Hck (P08631 whole entry, looked up): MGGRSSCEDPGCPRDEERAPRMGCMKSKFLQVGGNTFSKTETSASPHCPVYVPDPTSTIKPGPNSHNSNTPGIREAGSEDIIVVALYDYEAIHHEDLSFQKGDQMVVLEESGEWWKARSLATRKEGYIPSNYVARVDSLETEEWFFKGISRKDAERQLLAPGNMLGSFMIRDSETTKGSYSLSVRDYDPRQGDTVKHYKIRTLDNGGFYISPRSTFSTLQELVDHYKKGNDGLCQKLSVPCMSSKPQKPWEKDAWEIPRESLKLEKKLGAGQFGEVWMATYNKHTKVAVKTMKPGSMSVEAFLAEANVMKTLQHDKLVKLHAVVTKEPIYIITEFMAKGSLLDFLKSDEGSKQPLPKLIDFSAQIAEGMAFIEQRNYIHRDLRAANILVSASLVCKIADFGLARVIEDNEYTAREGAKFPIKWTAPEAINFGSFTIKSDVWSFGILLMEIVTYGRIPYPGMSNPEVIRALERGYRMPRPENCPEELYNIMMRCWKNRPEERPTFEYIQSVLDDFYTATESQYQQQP
Chain of FGFR1 (P11362 whole entry, looked up): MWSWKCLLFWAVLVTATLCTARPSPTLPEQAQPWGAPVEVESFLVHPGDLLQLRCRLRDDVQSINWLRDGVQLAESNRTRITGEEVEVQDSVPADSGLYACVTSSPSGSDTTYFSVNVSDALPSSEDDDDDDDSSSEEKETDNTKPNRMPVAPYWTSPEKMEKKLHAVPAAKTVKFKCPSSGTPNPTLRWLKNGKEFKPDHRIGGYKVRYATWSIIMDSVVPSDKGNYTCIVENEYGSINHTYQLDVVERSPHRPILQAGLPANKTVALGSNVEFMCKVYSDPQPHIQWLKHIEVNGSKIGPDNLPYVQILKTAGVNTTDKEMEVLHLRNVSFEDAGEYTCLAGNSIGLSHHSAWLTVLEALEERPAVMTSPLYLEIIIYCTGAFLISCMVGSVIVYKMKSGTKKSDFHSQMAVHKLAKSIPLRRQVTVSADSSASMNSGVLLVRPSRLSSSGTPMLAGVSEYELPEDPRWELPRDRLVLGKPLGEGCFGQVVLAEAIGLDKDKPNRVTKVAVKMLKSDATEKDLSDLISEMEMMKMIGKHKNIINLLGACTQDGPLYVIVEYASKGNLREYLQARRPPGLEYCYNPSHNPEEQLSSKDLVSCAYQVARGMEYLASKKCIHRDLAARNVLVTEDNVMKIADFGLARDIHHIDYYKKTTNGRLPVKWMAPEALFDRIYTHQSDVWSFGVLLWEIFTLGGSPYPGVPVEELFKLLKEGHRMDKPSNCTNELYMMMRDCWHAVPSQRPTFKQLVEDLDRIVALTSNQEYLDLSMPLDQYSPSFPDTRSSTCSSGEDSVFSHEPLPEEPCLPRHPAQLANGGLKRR
Chain of EPHB2 (P29323 whole entry, looked up): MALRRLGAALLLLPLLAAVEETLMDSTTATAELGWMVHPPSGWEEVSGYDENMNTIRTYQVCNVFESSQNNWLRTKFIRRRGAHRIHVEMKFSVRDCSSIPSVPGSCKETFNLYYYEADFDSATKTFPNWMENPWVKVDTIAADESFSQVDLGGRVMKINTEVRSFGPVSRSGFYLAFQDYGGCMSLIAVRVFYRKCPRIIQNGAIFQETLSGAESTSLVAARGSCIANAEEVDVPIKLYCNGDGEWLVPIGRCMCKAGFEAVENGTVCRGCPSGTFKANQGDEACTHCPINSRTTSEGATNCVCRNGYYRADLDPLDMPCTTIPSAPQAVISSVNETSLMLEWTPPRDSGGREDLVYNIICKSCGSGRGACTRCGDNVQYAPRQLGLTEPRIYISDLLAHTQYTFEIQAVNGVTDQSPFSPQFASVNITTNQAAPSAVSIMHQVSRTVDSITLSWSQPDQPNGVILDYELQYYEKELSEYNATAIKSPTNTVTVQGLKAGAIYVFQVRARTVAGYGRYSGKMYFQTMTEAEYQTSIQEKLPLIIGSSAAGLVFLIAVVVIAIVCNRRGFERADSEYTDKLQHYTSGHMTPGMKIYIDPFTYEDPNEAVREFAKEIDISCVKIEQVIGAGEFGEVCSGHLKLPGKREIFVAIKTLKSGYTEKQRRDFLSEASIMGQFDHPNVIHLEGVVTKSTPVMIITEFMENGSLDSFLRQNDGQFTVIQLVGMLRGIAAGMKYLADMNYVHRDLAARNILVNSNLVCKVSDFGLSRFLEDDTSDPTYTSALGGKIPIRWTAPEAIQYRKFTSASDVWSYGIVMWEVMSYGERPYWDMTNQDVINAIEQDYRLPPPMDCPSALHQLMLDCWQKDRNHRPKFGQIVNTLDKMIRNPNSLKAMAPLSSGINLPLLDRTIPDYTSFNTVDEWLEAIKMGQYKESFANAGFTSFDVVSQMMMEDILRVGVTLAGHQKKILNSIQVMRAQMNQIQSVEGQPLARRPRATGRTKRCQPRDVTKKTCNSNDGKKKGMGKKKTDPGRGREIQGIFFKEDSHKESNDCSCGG
Chain of Fyn (P06241 whole entry, looked up): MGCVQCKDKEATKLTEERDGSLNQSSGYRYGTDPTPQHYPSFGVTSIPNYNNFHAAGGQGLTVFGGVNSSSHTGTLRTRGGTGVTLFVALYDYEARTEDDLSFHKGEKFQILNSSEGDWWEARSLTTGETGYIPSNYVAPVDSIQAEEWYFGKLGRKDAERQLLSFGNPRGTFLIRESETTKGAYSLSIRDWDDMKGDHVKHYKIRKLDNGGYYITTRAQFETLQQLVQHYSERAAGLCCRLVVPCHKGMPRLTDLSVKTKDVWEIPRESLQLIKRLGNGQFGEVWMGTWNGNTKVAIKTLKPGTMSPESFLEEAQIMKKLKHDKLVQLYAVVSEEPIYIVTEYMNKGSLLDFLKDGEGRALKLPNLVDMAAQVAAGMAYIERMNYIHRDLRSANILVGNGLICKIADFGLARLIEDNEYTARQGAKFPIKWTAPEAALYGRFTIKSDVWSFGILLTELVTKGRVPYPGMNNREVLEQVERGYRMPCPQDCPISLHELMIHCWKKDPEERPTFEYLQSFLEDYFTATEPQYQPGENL
Chain of MERTK (Q12866 whole entry, looked up): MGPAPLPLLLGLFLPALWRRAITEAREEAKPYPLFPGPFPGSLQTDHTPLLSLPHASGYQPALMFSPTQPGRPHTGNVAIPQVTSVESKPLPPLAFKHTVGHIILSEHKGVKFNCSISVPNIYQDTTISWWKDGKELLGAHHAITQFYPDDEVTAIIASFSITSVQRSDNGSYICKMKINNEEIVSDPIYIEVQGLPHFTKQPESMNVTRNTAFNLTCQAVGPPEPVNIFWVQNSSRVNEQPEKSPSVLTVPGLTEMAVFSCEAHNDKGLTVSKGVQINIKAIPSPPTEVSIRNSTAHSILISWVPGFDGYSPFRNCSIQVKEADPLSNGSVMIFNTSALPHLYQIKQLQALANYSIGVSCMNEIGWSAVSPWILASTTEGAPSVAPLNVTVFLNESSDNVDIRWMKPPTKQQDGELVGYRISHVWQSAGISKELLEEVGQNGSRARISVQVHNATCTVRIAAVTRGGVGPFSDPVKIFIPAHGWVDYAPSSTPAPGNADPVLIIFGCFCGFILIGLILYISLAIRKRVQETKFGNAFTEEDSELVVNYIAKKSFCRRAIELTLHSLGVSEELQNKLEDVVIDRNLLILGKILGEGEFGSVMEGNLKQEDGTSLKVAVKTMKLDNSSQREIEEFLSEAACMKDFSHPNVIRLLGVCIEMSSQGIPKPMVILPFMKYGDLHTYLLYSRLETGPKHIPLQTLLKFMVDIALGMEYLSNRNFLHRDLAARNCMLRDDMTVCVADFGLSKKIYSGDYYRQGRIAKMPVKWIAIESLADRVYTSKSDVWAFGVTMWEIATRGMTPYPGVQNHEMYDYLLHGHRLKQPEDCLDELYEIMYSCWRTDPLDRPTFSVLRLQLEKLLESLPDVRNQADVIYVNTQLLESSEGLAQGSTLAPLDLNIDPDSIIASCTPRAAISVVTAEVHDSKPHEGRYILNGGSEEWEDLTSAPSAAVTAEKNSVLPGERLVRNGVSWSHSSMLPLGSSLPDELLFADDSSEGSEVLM
Chain of FGFR3 (P22607 whole entry, looked up): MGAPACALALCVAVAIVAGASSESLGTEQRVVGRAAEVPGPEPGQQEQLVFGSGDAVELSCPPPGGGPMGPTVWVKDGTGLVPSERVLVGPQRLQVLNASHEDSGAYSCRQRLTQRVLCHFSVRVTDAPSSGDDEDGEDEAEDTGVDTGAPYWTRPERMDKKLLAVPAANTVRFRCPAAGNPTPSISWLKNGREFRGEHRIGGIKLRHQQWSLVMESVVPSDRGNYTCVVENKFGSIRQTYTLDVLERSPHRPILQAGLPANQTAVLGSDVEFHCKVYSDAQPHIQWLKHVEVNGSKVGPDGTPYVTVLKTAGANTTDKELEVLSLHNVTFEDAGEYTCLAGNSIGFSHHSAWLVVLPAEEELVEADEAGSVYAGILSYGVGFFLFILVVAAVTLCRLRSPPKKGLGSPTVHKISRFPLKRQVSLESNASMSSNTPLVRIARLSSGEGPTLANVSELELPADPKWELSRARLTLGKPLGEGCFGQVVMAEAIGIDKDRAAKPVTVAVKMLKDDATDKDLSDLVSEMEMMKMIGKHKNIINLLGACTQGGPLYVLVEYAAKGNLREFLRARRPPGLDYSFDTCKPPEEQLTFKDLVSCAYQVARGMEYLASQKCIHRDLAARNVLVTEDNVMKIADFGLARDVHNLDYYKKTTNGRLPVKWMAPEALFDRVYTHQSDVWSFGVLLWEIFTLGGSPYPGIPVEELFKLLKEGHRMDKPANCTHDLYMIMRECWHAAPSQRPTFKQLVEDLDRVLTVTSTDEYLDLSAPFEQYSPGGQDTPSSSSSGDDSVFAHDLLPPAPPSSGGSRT

SH2 binding enrichment [14]: 1.02
SH2 binding enrichment [15]: 0.977
SH2 binding enrichment [16]: 0.573
Sequence: QPSPSYDSSGG [TCF12_Y70_R74G]
phosphorylation enrichment [1]: 0.668
phosphorylation enrichment [2]: 0.44
phosphorylation enrichment [3]: 0.778
phosphorylation enrichment [4]: 0.611
phosphorylation enrichment [5]: 0.623
phosphorylation enrichment [6]: 0.553
phosphorylation enrichment [7]: 0.731
phosphorylation enrichment [8]: 0.667
phosphorylation enrichment [9]: 0.604
phosphorylation enrichment [10]: 0.579
phosphorylation enrichment [11]: 0.452
phosphorylation enrichment [12]: 0.477
phosphorylation enrichment [13]: 0.478

SH2 binding enrichment [14]: 0.917
SH2 binding enrichment [15]: 0.841
SH2 binding enrichment [16]: 0.543
Sequence: FDKEFYSVHNK [MET_Y1235_YF]
phosphorylation enrichment [1]: 0.806
phosphorylation enrichment [2]: 0.432
phosphorylation enrichment [3]: 0.638
phosphorylation enrichment [4]: 0.528
phosphorylation enrichment [5]: 0.717
phosphorylation enrichment [6]: 0.561
phosphorylation enrichment [7]: 0.947
phosphorylation enrichment [8]: 0.479
phosphorylation enrichment [9]: 0.803
phosphorylation enrichment [10]: 0.866
phosphorylation enrichment [11]: 0.721
phosphorylation enrichment [12]: 0.959
phosphorylation enrichment [13]: 0.641

SH2 binding enrichment [14]: 0.784
SH2 binding enrichment [15]: 0.675
SH2 binding enrichment [16]: 0.398
Sequence: GFVEDYRPPFF [ACVRL1_Y421_I417F_YF]
phosphorylation enrichment [1]: 0.944
phosphorylation enrichment [2]: 0.504
phosphorylation enrichment [3]: 0.444
phosphorylation enrichment [4]: 0.537
phosphorylation enrichment [5]: 0.6
phosphorylation enrichment [6]: 0.411
phosphorylation enrichment [7]: 0.987
phosphorylation enrichment [8]: 0.442
phosphorylation enrichment [9]: 0.525
phosphorylation enrichment [10]: 0.879
phosphorylation enrichment [11]: 0.428
phosphorylation enrichment [12]: 0.868
phosphorylation enrichment [13]: 0.501

SH2 binding enrichment [14]: 0.652
SH2 binding enrichment [15]: 0.504
SH2 binding enrichment [16]: 0.431
Sequence: PGLKGYPGLSG [COL4A2_Y306_R304K]
phosphorylation enrichment [1]: 0.476
phosphorylation enrichment [2]: 0.474
phosphorylation enrichment [3]: 0.307
phosphorylation enrichment [4]: 0.369
phosphorylation enrichment [5]: 0.318
phosphorylation enrichment [6]: 0.218
phosphorylation enrichment [7]: 0.468
phosphorylation enrichment [8]: 0.213
phosphorylation enrichment [9]: 0.434
phosphorylation enrichment [10]: 0.422
phosphorylation enrichment [11]: 0.367
phosphorylation enrichment [12]: 0.639
phosphorylation enrichment [13]: 0.347

SH2 binding enrichment [14]: 1.36
SH2 binding enrichment [15]: 1.53
SH2 binding enrichment [16]: 0.781
Sequence: IVKAFYVHARA [AIPL1_Y268_R270H_YF]
phosphorylation enrichment [1]: 1.04
phosphorylation enrichment [2]: 0.492
phosphorylation enrichment [3]: 0.621
phosphorylation enrichment [4]: 0.479
phosphorylation enrichment [5]: 0.825
phosphorylation enrichment [6]: 0.559
phosphorylation enrichment [7]: 1.18
phosphorylation enrichment [8]: 0.585
phosphorylation enrichment [9]: 0.488
phosphorylation enrichment [10]: 0.955
phosphorylation enrichment [11]: 0.601
phosphorylation enrichment [12]: 0.718
phosphorylation enrichment [13]: 0.41

SH2 binding enrichment [14]: 0.643
SH2 binding enrichment [15]: 0.763
SH2 binding enrichment [16]: 0.537
Sequence: HVIKLYGACSQ [RET_Y791]
phosphorylation enrichment [1]: 1.13
phosphorylation enrichment [2]: 0.875
phosphorylation enrichment [3]: 0.768
phosphorylation enrichment [4]: 0.627
phosphorylation enrichment [5]: 0.84
phosphorylation enrichment [6]: 0.545
phosphorylation enrichment [7]: 1.58
phosphorylation enrichment [8]: 0.489
phosphorylation enrichment [9]: 0.661
phosphorylation enrichment [10]: 1.6
phosphorylation enrichment [11]: 0.423
phosphorylation enrichment [12]: 1.1
phosphorylation enrichment [13]: 0.713

SH2 binding enrichment [14]: 0.984
SH2 binding enrichment [15]: 0.767
SH2 binding enrichment [16]: 0.53
Sequence: GQLIVYAPPEW [CNTN6_Y315_F314V]
phosphorylation enrichment [1]: 1.02
phosphorylation enrichment [2]: 0.574
phosphorylation enrichment [3]: 1.66
phosphorylation enrichment [4]: 0.513
phosphorylation enrichment [5]: 0.665
phosphorylation enrichment [6]: 0.619
phosphorylation enrichment [7]: 0.985
phosphorylation enrichment [8]: 1.81
phosphorylation enrichment [9]: 2.22
phosphorylation enrichment [10]: 0.932
phosphorylation enrichment [11]: 1.37
phosphorylation enrichment [12]: 9.23
phosphorylation enrichment [13]: 1.75

SH2 binding enrichment [14]: 0.688
SH2 binding enrichment [15]: 0.706
SH2 binding enrichment [16]: 0.47
Sequence: KGEDFYSVTCH [FHL1_Y149_C150S]
phosphorylation enrichment [1]: 1.47
phosphorylation enrichment [2]: 0.806
phosphorylation enrichment [3]: 0.632
phosphorylation enrichment [4]: 0.849
phosphorylation enrichment [5]: 0.942
phosphorylation enrichment [6]: 3.47
phosphorylation enrichment [7]: 1.35
phosphorylation enrichment [8]: 5.87
phosphorylation enrichment [9]: 3.19
phosphorylation enrichment [10]: 1.13
phosphorylation enrichment [11]: 4.71
phosphorylation enrichment [12]: 0.899
phosphorylation enrichment [13]: 3.96

SH2 binding enrichment [14]: 0.726
SH2 binding enrichment [15]: 0.65
SH2 binding enrichment [16]: 0.39
Sequence: SISFDYCRVPM [BST2_Y8_T4I_YF]
phosphorylation enrichment [1]: 1.65
phosphorylation enrichment [2]: 2.13
phosphorylation enrichment [3]: 1.36
phosphorylation enrichment [4]: 1.43
phosphorylation enrichment [5]: 1.39
phosphorylation enrichment [6]: 0.533
phosphorylation enrichment [7]: 1.15
phosphorylation enrichment [8]: 0.463
phosphorylation enrichment [9]: 0.546
phosphorylation enrichment [10]: 1.43
phosphorylation enrichment [11]: 0.547
phosphorylation enrichment [12]: 0.785
phosphorylation enrichment [13]: 0.528

SH2 binding enrichment [14]: 0.382
SH2 binding enrichment [15]: 0.509
SH2 binding enrichment [16]: 0.315
Sequence: IFRASYFRRGD [LTK_Y676_YF]
phosphorylation enrichment [1]: 0.923
phosphorylation enrichment [2]: 0.431
phosphorylation enrichment [3]: 0.438
phosphorylation enrichment [4]: 0.465
phosphorylation enrichment [5]: 0.469
phosphorylation enrichment [6]: 0.439
phosphorylation enrichment [7]: 0.879
phosphorylation enrichment [8]: 0.512
phosphorylation enrichment [9]: 0.613
phosphorylation enrichment [10]: 0.668
phosphorylation enrichment [11]: 0.571
phosphorylation enrichment [12]: 0.63
phosphorylation enrichment [13]: 0.582

SH2 binding enrichment [14]: 1.23
SH2 binding enrichment [15]: 1.5
SH2 binding enrichment [16]: 1.23
Sequence: CTTIHYNFKCN [TP53_Y234_M237K_YF]
phosphorylation enrichment [1]: 0.795
phosphorylation enrichment [2]: 0.381
phosphorylation enrichment [3]: 0.392
phosphorylation enrichment [4]: 0.472
phosphorylation enrichment [5]: 0.494
phosphorylation enrichment [6]: 0.386
phosphorylation enrichment [7]: 0.75
phosphorylation enrichment [8]: 0.405
phosphorylation enrichment [9]: 0.476
phosphorylation enrichment [10]: 0.545
phosphorylation enrichment [11]: 0.425
phosphorylation enrichment [12]: 0.51
phosphorylation enrichment [13]: 0.411

SH2 binding enrichment [14]: 0.731
SH2 binding enrichment [15]: 0.576
SH2 binding enrichment [16]: 0.752
Sequence: DVLEFYNSKKT [PAK1_Y131]
phosphorylation enrichment [1]: 1.08
phosphorylation enrichment [2]: 0.517
phosphorylation enrichment [3]: 0.544
phosphorylation enrichment [4]: 0.856
phosphorylation enrichment [5]: 0.718
phosphorylation enrichment [6]: 1.13
phosphorylation enrichment [7]: 1.38
phosphorylation enrichment [8]: 0.525
phosphorylation enrichment [9]: 0.518
phosphorylation enrichment [10]: 1.11
phosphorylation enrichment [11]: 0.405
phosphorylation enrichment [12]: 0.925
phosphorylation enrichment [13]: 0.504

SH2 binding enrichment [14]: 0.825
SH2 binding enrichment [15]: 0.561
SH2 binding enrichment [16]: 0.448
Sequence: DLQDEYDFKCK [STAT1_Y170]
phosphorylation enrichment [1]: 1.28
phosphorylation enrichment [2]: 0.598
phosphorylation enrichment [3]: 0.702
phosphorylation enrichment [4]: 0.668
phosphorylation enrichment [5]: 0.772
phosphorylation enrichment [6]: 0.555
phosphorylation enrichment [7]: 1.31
phosphorylation enrichment [8]: 0.543
phosphorylation enrichment [9]: 0.766
phosphorylation enrichment [10]: 1.19
phosphorylation enrichment [11]: 0.538
phosphorylation enrichment [12]: 0.877
phosphorylation enrichment [13]: 0.546

SH2 binding enrichment [14]: 1.26
SH2 binding enrichment [15]: 0.749
SH2 binding enrichment [16]: 0.43
Sequence: RFLKDYGEFEV [GINS1_Y156_C152Y_YF]
phosphorylation enrichment [1]: 1.04
phosphorylation enrichment [2]: 0.497
phosphorylation enrichment [3]: 0.569
phosphorylation enrichment [4]: 0.582
phosphorylation enrichment [5]: 0.877
phosphorylation enrichment [6]: 0.63
phosphorylation enrichment [7]: 1.39
phosphorylation enrichment [8]: 0.85
phosphorylation enrichment [9]: 0.695
phosphorylation enrichment [10]: 1.13
phosphorylation enrichment [11]: 0.778
phosphorylation enrichment [12]: 0.835
phosphorylation enrichment [13]: 1.07

SH2 binding enrichment [14]: 0.892
SH2 binding enrichment [15]: 0.859
SH2 binding enrichment [16]: 1.14
Sequence: SVLVPYEPPEV [TP53_Y220_V217L]
phosphorylation enrichment [1]: 1.36
phosphorylation enrichment [2]: 0.651
phosphorylation enrichment [3]: 0.757
phosphorylation enrichment [4]: 0.505
phosphorylation enrichment [5]: 0.899
phosphorylation enrichment [6]: 0.63
phosphorylation enrichment [7]: 1.33
phosphorylation enrichment [8]: 0.555
phosphorylation enrichment [9]: 0.651
phosphorylation enrichment [10]: 1.32
phosphorylation enrichment [11]: 0.463
phosphorylation enrichment [12]: 0.874
phosphorylation enrichment [13]: 0.541

SH2 binding enrichment [14]: 1.14
SH2 binding enrichment [15]: 1.35
SH2 binding enrichment [16]: 0.807
Sequence: WIPIQYPIISE [NOG_Y222]
phosphorylation enrichment [1]: 0.782
phosphorylation enrichment [2]: 0.421
phosphorylation enrichment [3]: 0.439
phosphorylation enrichment [4]: 0.394
phosphorylation enrichment [5]: 0.571
phosphorylation enrichment [6]: 0.508
phosphorylation enrichment [7]: 0.807
phosphorylation enrichment [8]: 0.427
phosphorylation enrichment [9]: 0.439
phosphorylation enrichment [10]: 0.622
phosphorylation enrichment [11]: 0.343
phosphorylation enrichment [12]: 0.59
phosphorylation enrichment [13]: 0.354
